Test results from patent publication US20230416382A1 (Five Prime, published 2023).
Several values for one entry are separate records, joined by “and”; a condition that tells them apart may be missing. Equal entries are not always repeated.

T1: human CX3CR1 (human, UniProt P49238 1-355)
T1 construct: whole, on cells; also called hCX3CR1; huCX3CR1
T1 sequence (looked up): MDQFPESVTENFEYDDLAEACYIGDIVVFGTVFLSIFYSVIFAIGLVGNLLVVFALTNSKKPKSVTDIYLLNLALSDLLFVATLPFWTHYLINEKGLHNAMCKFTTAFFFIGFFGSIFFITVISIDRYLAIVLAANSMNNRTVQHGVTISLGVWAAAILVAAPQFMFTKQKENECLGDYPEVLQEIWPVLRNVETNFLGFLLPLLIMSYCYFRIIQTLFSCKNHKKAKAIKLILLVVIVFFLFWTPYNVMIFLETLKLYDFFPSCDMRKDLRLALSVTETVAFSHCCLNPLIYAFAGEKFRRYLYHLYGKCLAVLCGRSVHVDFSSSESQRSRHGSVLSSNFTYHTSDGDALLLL

T2: human CCR4 (human, UniProt P51679 1-360)
T2 construct: whole, on cells; also called hCCR4; huCCR4
T2 sequence (looked up): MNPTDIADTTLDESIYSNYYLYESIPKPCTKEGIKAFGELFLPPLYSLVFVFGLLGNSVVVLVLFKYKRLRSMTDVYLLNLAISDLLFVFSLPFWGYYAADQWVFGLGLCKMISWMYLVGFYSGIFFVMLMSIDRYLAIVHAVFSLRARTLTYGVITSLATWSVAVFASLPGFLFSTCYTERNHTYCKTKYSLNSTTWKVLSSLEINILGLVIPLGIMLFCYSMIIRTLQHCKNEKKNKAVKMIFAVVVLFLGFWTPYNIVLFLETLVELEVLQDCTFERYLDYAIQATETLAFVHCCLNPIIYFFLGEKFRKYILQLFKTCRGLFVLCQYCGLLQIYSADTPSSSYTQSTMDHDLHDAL

T3: mCCR8
T3 construct: also called murine CCR8; mouse CCR8
T3 receptor: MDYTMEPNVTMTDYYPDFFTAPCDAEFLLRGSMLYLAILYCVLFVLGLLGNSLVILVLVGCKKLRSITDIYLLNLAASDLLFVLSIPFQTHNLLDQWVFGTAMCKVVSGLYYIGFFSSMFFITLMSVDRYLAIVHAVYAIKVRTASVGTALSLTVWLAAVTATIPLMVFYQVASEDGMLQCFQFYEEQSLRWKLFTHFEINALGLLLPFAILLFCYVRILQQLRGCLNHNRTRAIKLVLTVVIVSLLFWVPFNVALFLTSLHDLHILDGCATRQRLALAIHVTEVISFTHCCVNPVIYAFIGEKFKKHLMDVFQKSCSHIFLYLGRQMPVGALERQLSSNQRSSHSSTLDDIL


Experiments:
human CCR8 [1] = target: T4, human CCR8 (human, UniProt P51685 1-355); test: cell-based or functional assay
human CCR8 [2] = target: T4, human CCR8; test: flow cytometry on HEK293 cells expressing human CCR8, anti-hIgG BV421 secondary
Description: (§1) To determine the binding potency of anti-CCR8 antibodies, a flow based binding study was performed. HEK293 were transfected using expression vectors containing human CCR8 (hCCR8), cynomolgus CCR8 (cyCCR8) or murine CCR8 (mCCR8). Anti-CCR8 antibodies were tittered in the presence of hCCR8_293 (FIG. 8A), cyCCR8_293 cells (FIG. 8B) or mCCR8_293 cells (FIG. 8C). The cells were subsequently stained with an anti-hIgG secondary antibody conjugated to Brilliant Violet 421 (Biolegend) to visualize bound anti-CCR8 antibodies. The geometric mean fluorescence intensity of each sample was used to determine the binding EC50 of each antibody with Prism v.8 (Table 4; Graphpad).

human CX3CR1 [3] = target: T1, human CX3CR1; test: flow cytometry at 10 ug/ml on dye-barcoded mixed 293 lines, anti-hIgG BV421 secondary
Source text: (§2) To assess antibody binding selectivity, the cell lines were first labelled with unique combinations of fluorescent dyes to permit antibody staining of all cell lines in a single tube. hCCR8_293 cells were labeled with Cell Trace Far Red (Invitrogen). hCCR4_293 cells were labeled with carboxyfluorescein succinimidyl ester (Invitrogen). hCX3CR1_293 cells were labeled with both Cell Trace Far Red and carboxyfluorescein succinimidyl ester. Parental 293 cells were not labeled with dye. Anti-CCR8 antibodies were prepared at a concentration of 10 ug/ml and incubated with labeled hCCR8_293, hCCR4_293, hCX3CR1_293 or parental 293 cells that were pre-mixed at an equivalent ratio. The cells were washed and then subsequently stained with an anti-hIgG secondary antibody conjugated to Brilliant Violet 421 (Biolegend) to visualize bound antibodies. To determine the selectivity of binding, the individual cell lines were first identified in each sample and the geometric median fluorescence intensity of the secondary antibody was obtained for each population (FIG. 9B). […]

human CCR4 [4] = target: T2, human CCR4; test: as above
Source text: as §2

human CCR8 [5] = target: T4, human CCR8; test: cell-based or functional assay; remark: listed apart in the source
cynomolgus CCR8 [6] = target: T5, cynomolgus CCR8 (Macaca fascicularis (cynomolgus), UniProt O97665 1-356 (rhesus entry)); test: flow cytometry on HEK293 cells expressing cynomolgus CCR8, anti-hIgG BV421 secondary
T5 construct: On transfected HEK293 cells (cyCCR8_293); also called cyCCR8; Cyno CCR8
Description: as §1

mCCR8 = target: T3, mCCR8; test: flow cytometry titration on mCCR8_293 (HEK293) cells, anti-hIgG BV421 secondary
Description: as §1

cynomolgus CCR8 [7] = target: T5, cynomolgus CCR8; test: flow cytometry titration on cyCCR8_293 (HEK293) cells, anti-hIgG BV421 secondary
Description: as §1

human CX3CR1 [8] = target: T1, human CX3CR1; test: flow cytometry on mixed dye-labelled HEK293 transfectants, signal compared with parental 293
Source text: as §2

human CCR4 [9] = target: T2, human CCR4; test: as above
Source text: as §2

T4 sequence (P51685 whole entry): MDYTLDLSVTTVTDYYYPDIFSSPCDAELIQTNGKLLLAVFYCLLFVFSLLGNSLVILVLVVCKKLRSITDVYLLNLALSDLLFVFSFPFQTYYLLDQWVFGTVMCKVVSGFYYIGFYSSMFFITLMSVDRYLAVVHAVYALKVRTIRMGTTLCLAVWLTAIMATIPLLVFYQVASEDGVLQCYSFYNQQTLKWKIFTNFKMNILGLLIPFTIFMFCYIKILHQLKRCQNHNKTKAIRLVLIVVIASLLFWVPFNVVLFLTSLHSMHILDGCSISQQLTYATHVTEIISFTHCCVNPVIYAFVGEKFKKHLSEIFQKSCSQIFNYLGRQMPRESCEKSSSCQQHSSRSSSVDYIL
T5 sequence (O97665 other isoform, or with tags, fused parts or gaps): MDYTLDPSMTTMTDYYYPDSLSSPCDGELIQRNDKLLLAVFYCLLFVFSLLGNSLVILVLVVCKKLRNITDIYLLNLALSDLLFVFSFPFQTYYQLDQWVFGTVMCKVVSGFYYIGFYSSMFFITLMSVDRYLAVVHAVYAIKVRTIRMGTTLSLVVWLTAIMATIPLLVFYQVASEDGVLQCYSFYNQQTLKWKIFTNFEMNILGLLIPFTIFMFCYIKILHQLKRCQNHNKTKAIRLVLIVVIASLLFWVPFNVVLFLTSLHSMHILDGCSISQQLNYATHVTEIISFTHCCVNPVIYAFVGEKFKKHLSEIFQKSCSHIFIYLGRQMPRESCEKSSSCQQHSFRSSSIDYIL

FcR reporter activation EC50 (Hut78 target cells, Jurkat FcγRIIIa NFAT-luciferase) (human CCR8 [1])	EC50 (human CCR8 [2])	binding result (human CX3CR1 [3])	binding result (human CCR4 [4])	EC50 (cynomolgus CCR8 [6])	EC50 (read off the curve) (cynomolgus CCR8 [7]) [µg/mL]	binding result (human CX3CR1 [8])	binding result (human CCR4 [9])	Binder	NK Killing EC50 (primary human NK cells, TALL1 target cells) (human CCR8 [5])	binding result (mCCR8)
0.569 µg/mL and 3790 pM	2.43 µg/mL and 16.2 nM	no binding (tested: 10 ug/ml)	no binding (tested: 10 ug/ml)	–	–	–	–	I3145 (antibody, V domains shown, also called anti-CCR8 antibody clone I3145) VH: EVQLVETGGGLIQPGGSLRLSCAASGFTVSSNYMSWVRQAPGKGLEWVSVIYSGGSTYYADSVKGRFTISRDNSKNTLYLQMNSLRAEDTAVYYCARGLGSADYWGQGTLVTVSS VL: DVVMTQSPLSLPVTLGQPASISCRSSQSLLHSNGNTYLNWFQQRPGQSPRRLIYKVSIRDSGVPDRFSGSGSGTDFTLKISRVEAEDVGLYYCMQSTQWPITFGGGTKLEIK	–	–
0.00592 µg/mL and 39.4 pM	0.18 µg/mL and 1.2 nM	no binding (tested: 10 ug/ml)	no binding (tested: 10 ug/ml)	0.3 µg/mL and 2 nM	–	–	–	I2676 (antibody, V domains shown, also called anti-CCR8 antibody clone I2676) VH: QVQLVESGGGVVQPGRSLRLSCAASGFTFSSYAMHWVRQAPGKGLEWVAVISYDGSNKYYADSVKGRFTISRDNSKNTLYLQMNSLRAEDTAVYYCARVRDRAFDIWGQGTMVTVSS VL: QAVLTQPASLSASPGASASLTCTLRSGINVGTYRIYWYQQKPGSPPQYLLRYKSDSDKQQGSGVPSRFSGSKDASANAGILLISGLQSEDEADYYCMIWHSSARNWVFGGGTKLTVL	0.000856 µg/mL and 6 pM	no binding (tested: about 30 ug/ml (log 1.5))
0.0091 µg/mL and 60.8 pM	4.6 nM and 0.69 µg/mL	no binding (tested: 10 ug/ml)	no binding (tested: 10 ug/ml)	–	~1	–	–	I3144 (antibody, V domains shown, also called anti-CCR8 antibody clone I3144) VH: QVQLVESGGGVVQPGRSLRLSCAASGFTFSSYAMHWVRQAPGKGLEWVAVISYDGSNKYYADSVKGRFTISRDNSKNTLYLQMNSLRAEDTAVYYCARVRDRAFDIWGQGTMVTVSS VL: QAVLTQPASLSASPGASASLTCTLRSGINVGTYRIYWYQQKPGSPPQYLLRYKSDSDKQQGSGVPSRFSGSKDASANAGILLISGLQSEDEADYYCMIWHSSARNWVFGGGTKLTVL	–	–
32.1 pM and 0.00482 µg/mL	0.2 µg/mL and 1.3 nM	–	–	–	–	–	–	I3210 (antibody, V domains shown, also called anti-CCR8 antibody clone I3210) VH: QVQLVESGGGVVQPGRSLRLSCAASGFTFSSYAMHWVRQAPGKGLEWVAVISYDGSNKYYADSVKGRFTISRDNSKNTLYLQMNSLRAEDTAVYYCARVRDRAFDIWGQGTMVTVSS VL: QAVLTQPASLSASPGASASLTCTLRSGINVGTYRIYWYQQKPGSPPQYLLRIIKSGSSDKQQGSGVPSRFSGSKDASANAGILLISGLQSEDEADYYCMIWHSSARNWVFGGGTKLTVLG	0.00065 µg/mL and 4.5 pM	–
0.116 µg/mL and 772 pM	0.13 µg/mL and 0.9 nM	–	–	9.6 µg/mL and 64 nM	–	no binding (tested: 10 ug/ml)	no binding (tested: 10 ug/ml)	I2677 (antibody, V domains shown, also called anti-CCR8 antibody clone I2677) VH: not shown VL: QAVLTQPASLSASPGASASLTCTLRSGINVGTYRIYWYQQKPGSPPQYLLRYKSDSDKQQGSGVPSRFSGSKDASANAGILLISGLQSEDEADYYCMIWHSSARNWVFGGGTQLTVL	–	–
0.00455 µg/mL and 30.4 pM	0.16 µg/mL and 1.1 nM	–	–	–	–	–	–	I3213 (antibody, V domains shown, also called anti-CCR8 antibody clone I3213) VH: QVQLVESGGGVVQPGRSLRLSCAASGFTFSSYAMHWVRQAPGKGLEWVAVISYDGSNKYYADSVKGRFTISRDNSKNTLYLQMNSLRAEDTAVYYCARVRDRAFDIWGQGTMVTVSS VL: QAVLTQPASLSASPGASASLTCTLRSGINLGTYRIYWYQQKPGSPPQYLLRYKSDSDKQQGSGVPSRFSGSKDASANAGILLISGLQSEDEADYYCMIWHSSARNWVFGGGTKLTVLG	0.000602 µg/mL and 4.2 pM	–
